Assay results: the Immune Epitope Database (IEDB)

Tests used:
Assay in all cases: IEDB peptide-MHC binding, purified MHC/competitive/fluorescence; filed as Kd, often an IC50 or EC50 that approximates it; ≥ and ≤ were set here for values at or beyond the usual limits of such assays
Details in all cases: source organism: Vibrio cholerae 2740-80
HLA-A*01:01 = target: HLA-A*01:01
HLA-A*11:01 = target: HLA-A*11:01
HLA-A*30:01 = target: HLA-A*30:01
HLA-A*30:02 = target: HLA-A*30:02
HLA-A*66:01 = target: HLA-A*66:01
HLA-B*07:02 = target: HLA-B*07:02
HLA-B*14:02 = target: HLA-B*14:02

Measured: Kd

MGMEQTMSV
≥ 5 µM: all assays above
